Data from patent US20110008323A1.

T1: human Cadherin-11 expressed on 431-D-11 cells (human) (UniProt P55287)
T1 sequence: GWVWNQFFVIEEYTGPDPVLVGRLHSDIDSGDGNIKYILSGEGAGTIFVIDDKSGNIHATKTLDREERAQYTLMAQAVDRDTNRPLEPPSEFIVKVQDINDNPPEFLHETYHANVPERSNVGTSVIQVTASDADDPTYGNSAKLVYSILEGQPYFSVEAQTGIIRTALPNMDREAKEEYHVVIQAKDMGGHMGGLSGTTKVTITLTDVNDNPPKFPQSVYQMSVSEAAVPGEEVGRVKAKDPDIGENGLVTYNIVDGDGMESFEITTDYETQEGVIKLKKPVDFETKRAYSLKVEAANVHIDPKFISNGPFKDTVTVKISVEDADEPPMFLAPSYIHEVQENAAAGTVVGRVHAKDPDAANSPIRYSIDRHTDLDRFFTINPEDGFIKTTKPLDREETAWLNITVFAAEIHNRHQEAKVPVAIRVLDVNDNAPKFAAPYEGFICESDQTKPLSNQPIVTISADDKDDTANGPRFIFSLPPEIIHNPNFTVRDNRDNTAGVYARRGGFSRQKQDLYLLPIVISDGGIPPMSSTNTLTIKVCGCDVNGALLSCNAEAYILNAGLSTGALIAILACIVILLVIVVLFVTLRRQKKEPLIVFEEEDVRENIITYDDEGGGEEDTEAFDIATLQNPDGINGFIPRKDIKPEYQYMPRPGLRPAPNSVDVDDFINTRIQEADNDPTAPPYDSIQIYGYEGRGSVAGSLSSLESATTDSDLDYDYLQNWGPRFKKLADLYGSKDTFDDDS

T2: Cad-11 EC1 domain peptide (first 33 amino acids of the EC1 domain), specificity ELISA of Example 5 (human)
T2 sequence (peptide): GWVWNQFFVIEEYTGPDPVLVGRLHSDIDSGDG

T3: Cad-8 EC1 domain peptide (region overlapping the G1-G33 region of the Cad-11 EC1 domain) (UniProt P55286)
T3 sequence (peptide, conjugated to biotin, looked up): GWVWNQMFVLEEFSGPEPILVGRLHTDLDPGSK

B1: H1M1 anti-Cad-11 antibody (produced by hybridoma H1M1, ATCC accession number PTA-9699) (antibody, from a related filing, V domains shown)
VH: EVQLQQSGPELVKPGASVKISCKASGYSFTGYFMNWVKQSHGKSLEWIGRINPYTGDTFYNQKFKGKATLTVDKSSSTAHMELLSLSSEDSAVYYCGRLGSRYWYFDVWGAGTTVTVSS
VL: DVLMTQTPLSLPVSLGDQASISCRSSQSIIHSNGNTYLEWYLQKPGQSPKLLIYKVSNRFSGVPDRFTGSGSGTDFTLKISRVEAEDLGVYYCFQGSHVPWTFGGGTKLEIK

Legend:
[1] = target: T1, human Cadherin-11 expressed on 431-D-11 cells (human); assay: cell-based or functional assay
[2] = target: T1, human Cadherin-11 expressed on 431-D-11 cells (human); assay: cell-based or functional assay; remark: listed apart in the source
[3] = target: T2, Cad-11 EC1 domain peptide (first 33 amino acids of the EC1 domain), specificity ELISA of Example 5 (human); assay: ELISA on EC1 domain peptides (first 33 amino acids)
[4] = target: T3, Cad-8 EC1 domain peptide (region overlapping the G1-G33 region of the Cad-11 EC1 domain); assay: ELISA on EC1 domain peptides, against the Cad-11 peptide

Molecule	inhibition of Cad-11 mediated cell aggregation [1] [µg/mL]	inhibition of aggregation of Cad-11 expressing 431-D-11 cells at 40 min [1] [µg/mL]	inhibition of aggregation of Cad-11-expressing A-431-D cells (photographs, overnight culture) [2] [µg/mL]	fold higher binding to Cad-11 than to any of the other cadherins tested [3] [fold]	fold lower binding than to Cad-11 [4] [fold]
human Cad-11-EC1-5-Fc fusion protein (from UniProt P55287 54-609)	100				
human Cad-11-EC1-hIgG2-Fc1 fusion protein (Fc fusion)	3	3			
B1			30	> 100	365
